Test results: paper PMC4081096, “GtrS and GltR form a two-component system: the central role of 2-ketogluconate in the expression of exotoxin A and glucose catabolic enzymes in Pseudomonas aeruginosa” (Nucleic Acids Research, 2014)

Experiments:
GtrS [1] = biological target: T1, GtrS (Pseudomonas aeruginosa, UniProt Q9HZ47); test: isothermal titration calorimetry with purified recombinant GtrS-LBD; 2-KG also accelerates autophosphorylation of full-length GtrS in membranes; assay type: binding
GtrS [2] = biological target: T1, GtrS; test: isothermal titration calorimetry with purified recombinant GtrS-LBD; assay type: binding
[3] = biological target: T2, GltR (Pseudomonas aeruginosa PAO1) (UniProt G3XCY6); test: EMSA; conditions: EMSA: 2 nM 32P-DNA, 50 mM Tris-HCl pH 7.5, 10 mM NaCl, 0.5 M Mg acetate (so in the source), 0.1 mM EDTA, 1 mM DTT, 5% glycerol, 20 ug/ml poly(dI-dC), 200 ug/ml BSA …
T2 sequence: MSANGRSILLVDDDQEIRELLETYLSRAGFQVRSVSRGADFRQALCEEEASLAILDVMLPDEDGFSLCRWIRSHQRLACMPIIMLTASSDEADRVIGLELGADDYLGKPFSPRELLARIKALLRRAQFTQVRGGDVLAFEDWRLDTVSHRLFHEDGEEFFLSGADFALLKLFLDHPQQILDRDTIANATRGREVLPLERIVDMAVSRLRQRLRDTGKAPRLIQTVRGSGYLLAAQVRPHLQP

[4] = tested on: GltR (Pseudomonas aeruginosa PAO1); test: EMSA; conditions: EMSA: 2 nM 32P-DNA, 50 mM Tris-HCl pH 7.5, 10 mM NaCl, 0.5 M Mg acetate (so in the source), 0.1 mM EDTA, 1 mM DTT, 5% glycerol, 20 ug/ml poly(dI-dC), 200 ug/ml BSA …

T1 sequence (Q9HZ47 30-197): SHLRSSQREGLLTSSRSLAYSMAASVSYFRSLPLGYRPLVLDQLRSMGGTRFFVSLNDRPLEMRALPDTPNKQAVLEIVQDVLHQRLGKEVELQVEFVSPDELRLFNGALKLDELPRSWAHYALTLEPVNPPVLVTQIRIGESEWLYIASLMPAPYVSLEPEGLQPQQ

Row | Compound | K half [4] [nM] | also measured
1 | O=C(O)C(=O)[C@@H](O)[C@H](O)[C@H](O)CO [2-KG, 2-ketogluconate] | – | Kd (GtrS [1]): 4.95 ± 0.8 µM
2 | O=C(O)[C@H](O)[C@@H](O)[C@H](O)[C@H](O)COP(=O)(O)O [6PG, 6-phosphogluconate] | – | Kd (GtrS [2]): 98 ± 33 µM
3 | AGATCTTGCAGCTTTACCGAGAGCCTCAACGGCTGGCGCTGATTCTGATAGGTCGATATCCGCCGGCGCTTGGCTGGCGGCTGTCTCTCCGGCAACATCTGCCGACCGTCCCGCCCTGGCGCGGGGCATTGCGGTTCAACGACGATGAATAACGACAACAAGAGAAGCGCCGGCGGCCTCGGCCTGGTCGGCGATATCGCTGCAG (double strand) [Pglk promoter fragment] | – | K half [3]: 1000 nM
4 | Pedd/gap-1 promoter fragment | 1000 | –
5 | Pglk promoter fragment | 1000 | –
6 | PoprB promoter fragment | 1000 | –
7 | PtoxA promoter fragment | 1000 | –
